# Data from publication PMC6007489 (Nucleic Acids Research, 2018).
# T1: His–rad1R218A–Rad10 (S. cerevisiae, UniProt P06777 1-1100; P06838 1-210, R218A)
# T1 sequence (looked up) 1: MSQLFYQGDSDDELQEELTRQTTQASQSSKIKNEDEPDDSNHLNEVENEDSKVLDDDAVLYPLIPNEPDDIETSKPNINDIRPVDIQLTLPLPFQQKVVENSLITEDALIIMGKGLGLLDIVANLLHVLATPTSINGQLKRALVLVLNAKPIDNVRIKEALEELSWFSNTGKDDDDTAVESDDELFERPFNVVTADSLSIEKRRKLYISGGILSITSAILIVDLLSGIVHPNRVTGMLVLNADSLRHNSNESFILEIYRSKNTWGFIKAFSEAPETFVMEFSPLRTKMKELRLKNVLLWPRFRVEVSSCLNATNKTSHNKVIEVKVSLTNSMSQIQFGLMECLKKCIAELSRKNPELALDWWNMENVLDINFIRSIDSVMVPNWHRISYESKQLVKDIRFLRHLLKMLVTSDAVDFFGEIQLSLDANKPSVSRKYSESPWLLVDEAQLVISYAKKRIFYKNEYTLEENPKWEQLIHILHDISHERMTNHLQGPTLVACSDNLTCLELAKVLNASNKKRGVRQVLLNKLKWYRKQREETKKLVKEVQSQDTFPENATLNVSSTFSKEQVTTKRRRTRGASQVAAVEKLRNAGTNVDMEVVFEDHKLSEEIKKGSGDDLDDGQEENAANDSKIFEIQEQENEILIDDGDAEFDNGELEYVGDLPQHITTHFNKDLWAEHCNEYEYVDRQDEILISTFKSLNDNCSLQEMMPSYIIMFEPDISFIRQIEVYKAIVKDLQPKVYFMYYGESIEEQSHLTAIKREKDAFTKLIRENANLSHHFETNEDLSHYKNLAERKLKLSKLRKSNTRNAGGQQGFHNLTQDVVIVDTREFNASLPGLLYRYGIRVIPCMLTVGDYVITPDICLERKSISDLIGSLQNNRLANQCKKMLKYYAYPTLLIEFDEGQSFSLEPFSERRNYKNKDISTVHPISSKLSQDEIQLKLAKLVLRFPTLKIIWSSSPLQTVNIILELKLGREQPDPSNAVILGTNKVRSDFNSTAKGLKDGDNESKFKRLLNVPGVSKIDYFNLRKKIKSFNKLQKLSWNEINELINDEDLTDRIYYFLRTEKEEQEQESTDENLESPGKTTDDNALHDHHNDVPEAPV
# T1 sequence (looked up) 2: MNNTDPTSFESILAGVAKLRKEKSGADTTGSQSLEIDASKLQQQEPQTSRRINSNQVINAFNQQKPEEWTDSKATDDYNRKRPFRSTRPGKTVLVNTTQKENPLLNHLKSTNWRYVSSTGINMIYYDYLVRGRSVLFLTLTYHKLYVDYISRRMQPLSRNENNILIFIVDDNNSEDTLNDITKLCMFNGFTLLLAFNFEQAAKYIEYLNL
# B1: Msh2–Msh3 (complex, S. cerevisiae)
# chain 1: MSSTRPELKFSDVSEERNFYKKYTGLPKKPLKTIRLVDKGDYYTVIGSDAIFVADSVYHTQSVLKNCQLDPVTAKNFHEPTKYVTVSLQVLATLLKLCLLDLGYKVEIYDKGWKLIKSASPGNIEQVNELMNMNIDSSIIIASLKVQWNSQDGNCIIGVAFIDTTAYKVGMLDIVDNEVYSNLESFLIQLGVKECLVQDLTSNSNSNAEMQKVINVIDRCGCVVTLLKNSEFSEKDVELDLTKLLGDDLALSLPQKYSKLSMGACNALIGYLQLLSEQDQVGKYELVEHKLKEFMKLDASAIKALNLFPQGPQNPFGSNNLAVSGFTSAGNSGKVTSLFQLLNHCKTNAGVRLLNEWLKQPLTNIDEINKRHDLVDYLIDQIELRQMLTSEYLPMIPDIRRLTKKLNKRGNLEDVLKIYQFSKRIPEIVQVFTSFLEDDSPTEPVNELVRSVWLAPLSHHVEPLSKFEEMVETTVDLDAYEENNEFMIKVEFNEELGKIRSKLDTLRDEIHSIHLDSAEDLGFDPDKKLKLENHHLHGWCMRLTRNDAKELRKHKKYIELSTVKAGIFFSTKQLKSIANETNILQKEYDKQQSALVREIINITLTYTPVFEKLSLVLAHLDVIASFAHTSSYAPIPYIRPKLHPMDSERRTHLISSRHPVLEMQDDISFISNDVTLESGKGDFLIITGPNMGGKSTYIRQVGVISLMAQIGCFVPCEEAEIAIVDAILCRVGAGDSQLKGVSTFMVEILETASILKNASKNSLIIVDELGRGTSTYDGFGLAWAIAEHIASKIGCFALFATHFHELTELSEKLPNVKNMHVVAHIEKNLKEQKHDDEDITLLYKVEPGISDQSFGIHVAEVVQFPEKIVKMAKRKANELDDLKTNNEDLKKAKLSLQEVNEGNIRLKALLKEWIRKVKEEGLHDPSKITEEASQHKIQELLRAIANEPEKENDNYLKYIKALLL
# chain 2: MAGQPTISRFFKKAVKSELTHKQEQEVAVGNGAGSESICLDTDEEDNLSSVASTTVTNDSFPLKGSVSSKNSKNSEKTSGTSTTFNDIDFAKKLDRIMKRRSDENVEAEDDEEEGEEDFVKKKARKSPTAKLTPLDKQVKDLKMHHRDKVLVIRVGYKYKCFAEDAVTVSRILHIKLVPGKLTIDESNPQDCNHRQFAYCSFPDVRLNVHLERLVHHNLKVAVVEQAETSAIKKHDPGASKSSVFERKISNVFTKATFGVNSTFVLRGKRILGDTNSIWALSRDVHQGKVAKYSLISVNLNNGEVVYDEFEEPNLADEKLQIRIKYLQPIEVLVNTDDLPLHVAKFFKDISCPLIHKQEYDLEDHVVQAIKVMNEKIQLSPSLIRLVSKLYSHMVEYNNEQVMLIPSIYSPFASKIHMLLDPNSLQSLDIFTHDGGKGSLFWLLDHTRTSFGLRMLREWILKPLVDVHQIEERLDAIECITSEINNSIFFESLNQMLNHTPDLLRTLNRIMYGTTSRKEVYFYLKQITSFVDHFKMHQSYLSEHFKSSDGRIGKQSPLLFRLFSELNELLSTTQLPHFLTMINVSAVMEKNSDKQVMDFFNLNNYDCSEGIIKIQRESESVRSQLKEELAEIRKYLKRPYLNFRDEVDYLIEVKNSQIKDLPDDWIKVNNTKMVSRFTTPRTQKLTQKLEYYKDLLIRESELQYKEFLNKITAEYTELRKITLNLAQYDCILSLAATSCNVNYVRPTFVNGQQAIIAKNARNPIIESLDVHYVPNDIMMSPENGKINIITGPNMGGKSSYIRQVALLTIMAQIGSFVPAEEIRLSIFENVLTRIGAHDDIINGDSTFKVEMLDILHILKNCNKRSLLLLDEVGRGTGTHDGIAISYALIKYFSELSDCPLILFTTHFPMLGEIKSPLIRNYHMDYVEEQKTGEDWMSVIFLYKLKKGLTYNSYGMNVAKLARLDKDIINRAFSISEELRKESINEDALKLFSSLKRILKSDNITATDKLAKLLSLDIH
# What was measured:
# Msh2–Msh3 = molecular target: B1; test: far-Western, overlay or dot blot
# His–rad1R218A–Rad10 = molecular target: T1, His–rad1R218A–Rad10; test: co-IP
fold lower binding than His–Rad1–Rad10 (Msh2–Msh3) [fold],fold enhancement of the interaction by non-specific DNA (His–rad1R218A–Rad10) [fold],Binder
~4,–,"His–rad1R203A,K205A–Rad10 (complex, S. cerevisiae) chain 1: MSQLFYQGDSDDELQEELTRQTTQASQSSKIKNEDEPDDSNHLNEVENEDSKVLDDDAVLYPLIPNEPDDIETSKPNINDIRPVDIQLTLPLPFQQKVVENSLITEDALIIMGKGLGLLDIVANLLHVLATPTSINGQLKRALVLVLNAKPIDNVRIKEALEELSWFSNTGKDDDDTAVESDDELFERPFNVVTADSLSIEKARALYISGGILSITSRILIVDLLSGIVHPNRVTGMLVLNADSLRHNSNESFILEIYRSKNTWGFIKAFSEAPETFVMEFSPLRTKMKELRLKNVLLWPRFRVEVSSCLNATNKTSHNKVIEVKVSLTNSMSQIQFGLMECLKKCIAELSRKNPELALDWWNMENVLDINFIRSIDSVMVPNWHRISYESKQLVKDIRFLRHLLKMLVTSDAVDFFGEIQLSLDANKPSVSRKYSESPWLLVDEAQLVISYAKKRIFYKNEYTLEENPKWEQLIHILHDISHERMTNHLQGPTLVACSDNLTCLELAKVLNASNKKRGVRQVLLNKLKWYRKQREETKKLVKEVQSQDTFPENATLNVSSTFSKEQVTTKRRRTRGASQVAAVEKLRNAGTNVDMEVVFEDHKLSEEIKKGSGDDLDDGQEENAANDSKIFEIQEQENEILIDDGDAEFDNGELEYVGDLPQHITTHFNKDLWAEHCNEYEYVDRQDEILISTFKSLNDNCSLQEMMPSYIIMFEPDISFIRQIEVYKAIVKDLQPKVYFMYYGESIEEQSHLTAIKREKDAFTKLIRENANLSHHFETNEDLSHYKNLAERKLKLSKLRKSNTRNAGGQQGFHNLTQDVVIVDTREFNASLPGLLYRYGIRVIPCMLTVGDYVITPDICLERKSISDLIGSLQNNRLANQCKKMLKYYAYPTLLIEFDEGQSFSLEPFSERRNYKNKDISTVHPISSKLSQDEIQLKLAKLVLRFPTLKIIWSSSPLQTVNIILELKLGREQPDPSNAVILGTNKVRSDFNSTAKGLKDGDNESKFKRLLNVPGVSKIDYFNLRKKIKSFNKLQKLSWNEINELINDEDLTDRIYYFLRTEKEEQEQESTDENLESPGKTTDDNALHDHHNDVPEAPV chain 2: MNNTDPTSFESILAGVAKLRKEKSGADTTGSQSLEIDASKLQQQEPQTSRRINSNQVINAFNQQKPEEWTDSKATDDYNRKRPFRSTRPGKTVLVNTTQKENPLLNHLKSTNWRYVSSTGINMIYYDYLVRGRSVLFLTLTYHKLYVDYISRRMQPLSRNENNILIFIVDDNNSEDTLNDITKLCMFNGFTLLLAFNFEQAAKYIEYLNL"
–,~2,B1
